# Measurements taken from US6632672.
# Molecular target: T1, phiC31 integrase (Streptomyces phage phiC31) (UniProt Q9T221)
# T1 sequence: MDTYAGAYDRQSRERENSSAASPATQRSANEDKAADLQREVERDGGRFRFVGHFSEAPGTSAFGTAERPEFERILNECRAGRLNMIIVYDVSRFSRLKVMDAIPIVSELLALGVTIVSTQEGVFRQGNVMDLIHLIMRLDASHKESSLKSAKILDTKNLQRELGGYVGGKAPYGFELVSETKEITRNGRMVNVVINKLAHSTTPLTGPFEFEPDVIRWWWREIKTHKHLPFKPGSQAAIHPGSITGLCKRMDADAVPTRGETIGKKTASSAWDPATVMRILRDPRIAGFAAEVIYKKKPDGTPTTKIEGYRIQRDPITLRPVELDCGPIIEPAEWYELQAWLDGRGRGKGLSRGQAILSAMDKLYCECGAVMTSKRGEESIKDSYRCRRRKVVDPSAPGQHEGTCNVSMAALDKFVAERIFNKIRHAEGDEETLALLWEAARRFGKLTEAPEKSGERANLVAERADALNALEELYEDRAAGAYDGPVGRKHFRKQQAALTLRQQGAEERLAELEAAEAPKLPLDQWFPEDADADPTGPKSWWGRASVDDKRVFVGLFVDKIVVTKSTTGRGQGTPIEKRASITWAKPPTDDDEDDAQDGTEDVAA
# Assay: cell_activity
substance,measurement,setting,value
attB34,binding signal,"E. coli, relative to full-length attB",100%
attB full length (pBCPB+),activity,"bimolecular integration of attP donor into EBV plasmid in human 293 cells, corrected for transfection",7.5%
same,activity,"intramolecular integration with attP in E. coli, all colonies white",100%
attP full length (221 bp),activity,"intramolecular attB x attP recombination in human 293 cells, SE 2.32%, 16 experiments",50.6%
same,activity,"intramolecular integration with attB in E. coli, all colonies white",100%
